{"source": "paper PMC11098746", "about": "(2024)"}
{"biological_target": "Circumsporozoite protein (CSP) (Plasmodium falciparum (isolate 3D7), UniProt Q7K740)", "sequence (Q7K740 19-374)": "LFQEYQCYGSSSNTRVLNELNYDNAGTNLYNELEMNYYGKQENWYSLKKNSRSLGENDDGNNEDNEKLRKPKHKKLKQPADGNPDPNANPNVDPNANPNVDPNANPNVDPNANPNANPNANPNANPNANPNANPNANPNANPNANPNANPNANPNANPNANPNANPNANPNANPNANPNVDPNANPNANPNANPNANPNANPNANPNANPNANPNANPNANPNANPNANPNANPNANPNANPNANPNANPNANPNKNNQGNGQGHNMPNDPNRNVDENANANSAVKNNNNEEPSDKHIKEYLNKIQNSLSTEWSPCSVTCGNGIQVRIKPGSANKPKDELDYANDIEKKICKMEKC", "test": "AVEXIS screen signal:noise (double-corrected)"}
{"binder": "ADP342 (protein, bait human Fc-tagged dimer) MATQLPAYVAILLFYVSRASCQDTFTAAVYEHAAILPNATLTPVSREEALALMNRNLDILEGAITSAADQGAHIIVTPEDAIYGWNFNRDSLYPYLEDIPDPEVNWIPCNNRNRFGQTPVQERLSCLAKNNSIYVVANIGDKKPCDTSDPQCPPDGRYQYNTDVVFDSQGKLVARYHKQNLFMGENQFNVPKEPEIVTFNTTFGSFGIFTCFDILFHDPAVTLVKDFHVDTIVFPTAWMNVLPHLSAVEFHSAWAMGMRVNFLASNIHYPSKKMTGSGIYAPNSSRAFHYDMKTEEGKLLLSQLDSHPSHSAVVNWTSYASSIEALSSGNKEFKGTVFFDEFTFVKLTGVAGNYTVCQKDLCCHLSYKMSENIPNEVYALGAFDGLHTVEGRYYLQICTLLKCKTTNLNTCGDSAETASTRFEMFSLSGTFGTQYVFPEVLLSENQLAPGEFQVSTDGRLFSLKPTSGPVLTVTLFGRLYEKDWASNASSGLT", "binding score": 1.71}
{"binder": "ADP339 (protein, bait human Fc-tagged dimer) MASPFLVLAIGTCLTNSLVPEKEKDPKYWRDQAQETLKYALELQKLNTNVAKNVIMFLGDGMGVSTVTAARILKGQLHHNPGEETRLEMDKFPFVALSKTYNTNAQVPDSAGTATAYLCGVKANEGTVGVSAATERSRCNTTQGNEVTSILRWAKDAGKSVGIVTTTRVNHATPSAAYAHSADRDWYSDNEMPPEALSQGCKDIAYQLMHNIRDIDVIMGGGRKYMYPKNKTDVEYESDEKARGTRLDGLDLVDTWKSFKPRYKHSHFIWNRTELLTLDPHNVDYLLGLFEPGDMQYELNRNNVTDPSLSEMVVVAIQILRKNPKGFFLLVEGGRIDHGHHEGKAKQALHEAVEMDRAIGQAGSLTSSEDTLTVVTADHSHVFTFGGYTPRGNSIFGLAPMLSDTDKKPFTAILYGNGPGYKVVGGERENVSMVDYAHNNYQAQSAVPLRHETHGGEDVAVFSKGPMAHLLHGVHEQNYVPHVMAYAACIGANLGHCAPASS", "binding score": 1.02}
{"binder": "ADP276 (protein, bait human Fc-tagged dimer) DRGHLDYPRNPRREGSFPQGQLSMLQEKIDHLERLLAENNEIISNIRDSVINLSESVEDGPKSSQSNFSQGAGSHLLPSQLSLSVDTADCLFASQSGSHNSDVQMLDVYSLISFDNPDGGVWKQGFDITYESNEWDTEPLQVFVVPHSHNDPGWLKTFNDYFRDKTQYIFNNMVLKLKEDSRRKFIWSEISYLSKWWDIIDIQKKDAVKSLIENGQLEIVTGGWVMPDEATPHYFALIDQLIEGHQWLENNIGVKPRSGWAIDPFGHSPTMAYLLNRAGLSHMLIQRVHYAVKKHFALHKTLEFFWRQNWDLGSVTDILCHMMPFYSYDIPHTCGPDPKICCQFDFKRLPGGRFGCPWGVPPETIHPGNVQSRARMLLDQYRKKSKLFRTKVLLAPLGDDFRYCEYTEWDLQFKNYQQLFDYMNSQSKFKVKIQFGTLSDFFDALDKADETQRDKGQSMFPVLSGDFFTYADRDDHYWSGYFTSRPFYKRMDRIMESHLRAAEILYYFALRQAHKYKINKFLSSSLYTALTEARRNLGLFQHHDAITGTAKDWVVVDYGTRLFHSLMVLEKIIGNSAFLLILKDKLTYDSYSPDTFLEMDLKQKSQDSLPQKNIIRLSAEPRYLVVYNPLEQDRISLVSVYVSSPTVQVFSASGKPVEVQVSAVWDTANTISETAYEISFRAHIPPLGLKVYKILESASSNSHLADYVLYKNKVEDSGIFTIKNMINTEEGITLENSFVLLRFDQTGLMKQMMTKEDGKHHEVNVQFSWYGTTIKRDKSGAYLFLPDGNAKPYVYTTPPFVRVTHGRIYSEVTCFFDHVTHRVRLYHIQGIEGQSVEVSNIVDIRKVYNREIAMKISSDIKSQNRFYTDLNGYQIQPRMTLSKLPLQANVYPMTTMAYIQDAKHRLTLLSAQSLGVSSLNSGQIEVIMDRRLMQDDNRGLEQGIQDNKITANLFRILLEKRSAVNTEEEKKSVSYPSLLSHITSSLMNHPVIPMANKFSSPTLELQGEFSPLQSSLPCDIHLVNLRTIQSKVGNGHSNEAALILHRKGFDCRFSSKGTGLFCSTTQGKILVQKLLNKFIVESLTPSSLSLMHSPPGTQNISEINLSPMEISTFRIQLR", "binding score": 0.79}
{"binder": "ADP144 (protein, bait human Fc-tagged dimer) MELRARGWWLLCAAAALVACARGDPASKSRSCGEVRQIYGAKGFSLSDVPQAEISGEHLRICPQGYTCCTSEMEENLANRSHAELETALRDSSRVLQAMLATQLRSFDDHFQHLLNDSERTLQATFPGAFGELYTQNARAFRDLYSELRLYYRGANLHLEETLAEFWARLLERLFKQLHPQLLLPDDYLDCLGKQAEALRPFGEAPRELRLRATRAFVAARSFVQGLGVASDVVRKVAQVPLGPECSRAVMKLVYCAHCLGVPGARPCPDYCRNVLKGCLANQADLDAEWRNLLDSMVLITDKFWGTSGVESVIGSVHTWLAEAINALQDNRDTLTAKVIQGCGNPKVNPQGPGPEEKRRRGKLAPRERPPSGTLEKLVSEAKAQLRDVQDFWISLPGTLCSEKMALSTASDDRCWNGMARGRYLPEVMGDGLANQINNPEVEVDITKPDMTIRQQIMQLKIMTNRLRSAYNGNDVDFQDASDDGSGSGSGDGCLDDLCSRKVSRKSSSSRTPLTHALPGLSEQEGQKTSAAS", "binding score": 0.883}
{"binder": "ADP380 (protein, bait human Fc-tagged dimer) VLEEVQQVRRSHQDFSRQREELGQGLQGVEQKVQSLQATFGTFESILRSSQHKQDLTEKAVKQGESEVSRISEVLQKLQNEILKDLSDGIHVVKDARERDFTSLENTVEERLTELTKSINDNIAIFTEVQKRSQKEINDMKAKVASLEESEGNKQDLKALKEAVKEIQTSAKSREWDMEALRSTLQTMESDIYTEVRELVSLKQEQQAFKEAADTERLALQALTEKLLRSEESVSRLPEEIRRLEEELRQLKSDSHGPKEDGGFRHSEAFEALQQKSQGLDSRLQHVEDGVLSMQVASARQTESLESLLSKSQEHEQRLAALQGRLEGLGSSEADQDGLASTVRSLGETQLVLYGDVEELKRSVGELPSTVESLQKVQEQVHTLLSQDQAQAARLPPQDFLDRLSSLDNLKASVSQVEADLKMLRTAVDSLVAYSVKIETNENNLESAKGLLDDLRNDLDRLFVKVEKIHEKV", "binding score": 0.68}
{"binder": "ADP373 (protein, bait human Fc-tagged dimer) MAKASCLPLGFIVFLPAVLLLVAPPLPAADAAHEFTVYRMQQYDLQGQPYGTRNAVLNTEARTMAAEVLSRRCVLMRLLDFSYEQYQKALRQSAGAVVIILPRAMAAVPQDVVRQFMEIEPEMLAMETAVPVYFAVEDEALLSIYKQTQAASASQGSASAAEVLLRTATANGFQMVTSGVQSKAVSDWLIASVEGRLTGLGGEDLPTIVIVAHYDAFGVAPWLSLGADSNGSGVSVLLELARLFSRLYTYKRTHAAYNLLFFASGGGKFNYQGTKRWLEDNLDHTDSSLLQDNVAFVLCLDTVGRGSSLHLHVSKPPREGTLQHAFLRELETVAAHQFPEVRFSMVHKRINLAEDVLAWEHERFAIRRLPAFTLSHLESHRDGQRSSIMDVRSRVDSKTLTRNTRIIAEALTRVIYNLTEKGTPPDMPVFTEQMQIQQEQLDSVMDWLTNQPRAAQLVDKDSTFLSTLEHHLSRYLKDVKQHHVKADKRDPEFVFYDQLKQVMNAYRVKP", "binding score": 1.26}
{"binder": "ADP361 (protein, bait human Fc-tagged dimer) MAPPQVLAFGLLLAAATATFAAAQEECVCENYKLAVNCFVNNNRQCQCTSVGAQNTVICSKLAAKCLVMKAEMNGSKLGRRAKPEGALQNNDGLYDPDCDESGLFKAKQCNGTSMCWCVNTAGVRRTDKDTEITCSERVRTYWIIIELKHKAREKPYDSKSLRTALQKEITTRYQLDPKFITSILYENNVITIDLVQNSSQKTQNDVDIADVAYYFEKDVKGESLFHSKKMDLTVNGEQLDLDPGQTLIYYVDEKAPEFSMQGLKAG", "binding score": 6.45}
{"binder": "ADP392 (protein, bait human Fc-tagged dimer) GLTRSCDSSGDGGPGTAPAPSHLPSSTASPSGPPAQDQDICPASEDESGQWKNFRLPDFVNPVHYDLHVKPLLEEDTYTGTVSISINLSAPTRYLWLHLRETRITRLPELKRPSGDQVQVRRCFEYKKQEYVVVEAEEELTPSSGDGLYLLTMEFAGWLNGSLVGFYRTTYTENGQVKSIVATDHEPTDARKSFPCFDEPNKKATYTISITHPKEYGALSNMPVAKEESVDDKWTRTTFEKSVPMSTYLVCFAVHQFDSVKRISNSGKPLTIYVQPEQKHTAEYAANITKSVFDYFEEYFAMNYSLPKLDKIAIPDFGTGAMENWGLITYRETNLLYDPKESASSNQQRVATVVAHELVHQWFGNIVTMDWWEDLWLNEGFASFFEFLGVNHAETDWQMRDQMLLEDVLPVQEDDSLMSSHPIIVTVTTPDEITSVFDGISYSKGSSILRMLEDWIKPENFQKGCQMYLEKYQFKNAKTSDFWAALEEASRLPVKEVMDTWTRQMGYPVLNVNGVKNITQKRFLLDPRANPSQPPSDLGYTWNIPVKWTEDNITSSVLFNRSEKEGITLNSSNPSGNAFLKINPDHIGFYRVNYEVATWDSIATALSLNHKTFSSADRASLIDDAFALARAQLLDYKVALNLTKYLKREENFLPWQRVISAVTYIISMFEDDKELYPMIEEYFQGQVKPIADSLGWNDAGDHVTKLLRSSVLGFACKMGDREALNNASSLFEQWLNGTVSLPVNLRLLVYRYGMQNSGNEISWNYTLEQYQKTSLAQEKEKLLYGLASVKNVTLLSRYLDLLKDTNLIKTQDVFTVIRYISYNSYGKNMAWNWIQLNWDYLVNRYTLNNRNLGRIVTIAEPFNTELQLWQMESFFAKYPQAGAGEKPREQVLETVKNNIEWLKQHRNTIREWFFNLLESG", "binding score": 0.793}
{"binder": "ADP103 (protein, bait human Fc-tagged dimer) MAAALFVLLGFALLGTHGASGAAGFVQAPLSQQRWVGGSVELHCEAVGSPVPEIQWWFEGQGPNDTCSQLWDGARLDRVHIHATYHQHAASTISIDTLVEEDTGTYECRASNDPDRNHLTRAPRVKWVRAQAVVLVLEPGTVFTTVEDLGSKILLTCSLNDSATEVTGHRWLKGGVVLKEDALPGQKTEFKVDSDDQWGEYSCVFLPEPMGTANIQLHGPPRVKAVKSSEHINEGETAMLVCKSESVPPVTDWAWYKITDSEDKALMNGSESRFFVSSSQGRSELHIENLNMEADPGQYRCNGTSSKGSDQAIITLRVRSHL", "binding score": 0.981}
{"binder": "ADP141 (protein, bait human Fc-tagged dimer) MGRLASRPLLLALLSLALCRGRVVRVPTATLVRVVGTELVIPCNVSDYDGPSEQNFDWSFSSLGSSFVELASTWEVGFPAQLYQERLQRGEILLRRTANDAVELHIKNVQPSDQGHYKCSTPSTDATVQGNYEDTVQVKVLADSLHVGPSARPPPSLSLREGEPFELRCTAASASPLHTHLALLWEVHRGPARRSVLALTHEGRFHPGLGYEQRYHSGDVRLDTVGSDAYRLSVSRALSADQGSYRCIVSEWIAEQGNWQEIQEKAVEVATVVIQPSVLRAAVPKNVSVAEGKELDLTCNITTDRADDVRPEVTWSFSRMPDSTLPGSRVLARLDRDSLVHSSPHVALSHVDARSYHLLVRDVSKENSGYYYCHVSLWAPGHNRSWHKVAEAVSSPAGVGVTWLEPDYQVYLNASKVPGFADDPTELACRVVDTKSGEANVRFTVSWYYRMNRRSDNVVTSELLAVMDGDWTLKYGERSKQRAQDGDFIFSKEHTDTFNFRIQRTTEEDRGNYYCVVSAWTKQRNNSWVKSKDVFSKPVNIFWALEDSVLVVKARQPKPFFAAGNTFEMTCKVSSKNIKSPRYSVLIMAEKPVGDLSSPNETKYIISLDQDSVVKLENWTDASRVDGVVLEKVQEDEFRYRMYQTQVSDAGLYRCMVTAWSPVRGSLWREAATSLSNPIEIDFQTSGPIFNASVHSDTPSVIRGDLIKLFCIITVEGAALDPDDMAFDVSWFAVHSFGLDKAPVLLSSLDRKGIVTTSRRDWKSDLSLERVSVLEFLLQVHGSEDQDFGNYYCSVTPWVKSPTGSWQKEAEIHSKPVFITVKMDVLNAFKYP", "binding score": 2.49}
